According to patent US20170015742A1 (published 2017):

Key:
[1] = biological target: recombinant human PDGF-BB (human, UniProt P01127 82-190); assay: cell-based or functional assay
[2] = biological target: recombinant human VEGF165 (human, UniProt P15692 207-395); assay: cell-based or functional assay
recombinant human VEGF165, sequence (P15692 other isoform, or with tags, fused parts or gaps limits assumed): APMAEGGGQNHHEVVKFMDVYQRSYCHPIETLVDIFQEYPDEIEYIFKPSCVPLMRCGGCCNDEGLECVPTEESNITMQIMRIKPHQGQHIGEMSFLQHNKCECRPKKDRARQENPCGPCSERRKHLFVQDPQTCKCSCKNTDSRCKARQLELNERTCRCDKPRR

recombinant human PDGF-BB, sequence (P01127 82-190 limits assumed): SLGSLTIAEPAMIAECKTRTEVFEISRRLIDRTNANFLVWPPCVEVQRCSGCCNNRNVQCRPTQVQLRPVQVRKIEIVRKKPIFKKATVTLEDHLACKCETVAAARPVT

| Potency IC50 (nM) NIH-3T3 hPDGF-BB [1] [nM] | Potency IC50 (nM) HMVEC-d hVEGF165 [2] [nM] | Binder |
| --- | --- | --- |
| 1.91 | 0.059 | 9E10.1_GS_9E8.4 (bispecific antibody, human IgG1, kappa, L234A L235A) heavy: EIQLVQSGSELKKPGASVKVSCKASGYTFTNYGMYWVKQAPGQGLEYMGWIDTETGRPTYADDFKGRFVFSLDTSVSTAYLQISSLKAEDTAVYFCARWSGDTTGIRGPWFAYWGQGTLVTVSSGGGGSGGGGSEVTLRESGPALVKPTQTLTLTCTFSGFSLSTYGMGVGWIRQPPGKALEWLANIWWDDDKYYNPSLKNRLTISKDTSKNQVVLTMTNMDPVDTATYYCARIESIGTTYSFDYWGQGTMVTVSSASTKGPSVFPLAPSSKSTSGGTAALGCLVKDYFPEPVTVSWNSGALTSGVHTFPAVLQSSGLYSLSSVVTVPSSSLGTQTYICNVNHKPSNTKVDKKVEPKSCDKTHTCPPCPAPEAAGGPSVFLFPPKPKDTLMISRTPEVTCVVVDVSHEDPEVKFNWYVDGVEVHNAKTKPREEQYNSTYRVVSVLTVLHQDWLNGKEYKCKVSNKALPAPIEKTISKAKGQPREPQVYTLPPSREEMTKNQVSLTCLVKGFYPSDIAVEWESNGQPENNYKTTPPVLDSDGSFFLYSKLTVDKSRWQQGNVFSCSVMHEALHNAYTQKSLSLSPGK light: DIRMTQSPSSLSASVGDRVTIECLASEDIYSDLAWYQQKPGKSPKLLIYNANGLQNGVPSRFSGSGSGTDYSLTISSLQPEDVATYFCQQYNYFPGTFGQGTKLEIKGGSGGGGSGGEFVLTQSPGTLSLSPGERATLSCERSSGDIGDSYVSWYQQKPGQAPRLVIYADDQRPSGIPDRFSGSGSGTDFTLTISRLEPEDFAVYYCQSYDINIDIVFGGGTKVEIKRTVAAPSVFIFPPSDEQLKSGTASVVCLLNNFYPREAKVQWKVDNALQSGNSQESVTEQDSKDSTYSLSSTLTLSKADYEKHKVYACEVTHQGLSSPVTKSFNRGEC |
| 0.037 | 0.05 | 9E10.6_GS_CL-33675 (bispecific antibody, human IgG1, kappa, L234A L235A) heavy: EVQLVQSGAEVKKPGSSVKVSCKASGYTFTNYGMYWVRQAPGQGLEWMGWIDTETGRPTYADDFKGRFTFTADKSTSTAYMELSSLRSEDTAVYYCARWSGDTTGIRGPWFAYWGQGTLVTVSSGGGGSGGGGSEVTLRESGPALVKPTQTLTLTCTFSGFSLSTYGMGVGWIRQPPGKALEWLANIWWDDDKYYNPSLKNRLTISKDTSKNQVVLTMTNMDPVDTATYYCARIESSGPKYSFDYWGQGTMVTVSSASTKGPSVFPLAPSSKSTSGGTAALGCLVKDYFPEPVTVSWNSGALTSGVHTFPAVLQSSGLYSLSSVVTVPSSSLGTQTYICNVNHKPSNTKVDKKVEPKSCDKTHTCPPCPAPEAAGGPSVFLFPPKPKDTLMISRTPEVTCVVVDVSHEDPEVKFNWYVDGVEVHNAKTKPREEQYNSTYRVVSVLTVLHQDWLNGKEYKCKVSNKALPAPIEKTISKAKGQPREPQVYTLPPSREEMTKNQVSLTCLVKGFYPSDIAVEWESNGQPENNYKTTPPVLDSDGSFFLYSKLTVDKSRWQQGNVFSCSVMHEALHNAYTQKSLSLSPGK light: DIRMTQSPSSLSASVGDRVTITCLASEDIYSDLAWYQQKPGKSPKLLIYNANGLQNGVPSRFSGSGSGTDYTLTISSLQPEDVATYFCQQYNYFPGTFGQGTKLEIKGGSGGGGSGGEIVLTQSPGTLSLSPGERATLSCRASSGSIWYSFVSWYQQKPGQAPRLLIYADDQRASGIPDRFSGSGSGTDFTLTISRLEPEDFAVYYCQSYGINIDVVFGGGTKVEIKRTVAAPSVFIFPPSDEQLKSGTASVVCLLNNFYPREAKVQWKVDNALQSGNSQESVTEQDSKDSTYSLSSTLTLSKADYEKHKVYACEVTHQGLSSPVTKSFNRGEC |
